Test results as given in the supplement of paper PMC11780869.

Test system: Bacillus subtilis
Assay: cleaved RNA product abundance (RNA/gDNA barcode ratio) relative to median wild-type variant (ratio to wild type); higher = more accumulation of the downstream cleavage product
Procedure, shortened: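 Truncated aprE or tetM reporter mRNAs with barcoded RNase Y cleavage-site windows, mutagenized from oligos at a 9% error rate, sat in the B. subtilis chromosome. Cells grew in LB at 37°C from OD600 0.0003 to 0.3. Gel-selected cleaved RNA was reverse transcribed and its barcodes sequenced with those from genomic DNA, collapsing by UMI. Cleaved product abundance equals the RNA:gDNA barcode ratio per construct over the median construct with the unmutated site.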

[1] = experiment (reporter, strain, medium): exp 4a: truncated aprE reporter, strain BJT201 with 2% xylose (RNase J1 expressed), cleavage site: cggR-gapA (positions -7 to +36 mutated)
[2] = experiment (reporter, strain, medium): exp 8a: truncated aprE reporter, strain BJT201 with 2% xylose (RNase J1 expressed), cleavage site: glnRA (positions -5 to +31 mutated)
[3] = experiment (reporter, strain, medium): exp 2b: truncated aprE reporter, strain BJT200, cleavage site: cggR-gapA (positions -7 to +36 mutated)

Row | Sequence | cleaved RNA product abundance [1] | cleaved RNA product abundance [2] | cleaved RNA product abundance [3]
1 | ACAGACGAAGGAGCCGCAAAGAAGTTATTAAGCGATGAAGAATCCCTCAATATAAATATCTCTCACTTATTTAAA | 0.0967 | – | –
2 | CGACATGTCCCGCTTCTTTCATTAATCCGTTAGCAACTGTTTTGTTATATACATTGACCTTTTAAGAGGAGGAAT | – | 2.01 | –
3 | ACAGACGAAGGAGCCGCAAAGAAGTAATTAAGGCATGAATAATCCCTCAATATAAATATCTCTCACTTATTTAAA | 0.0969 | – | –
4 | ACAGACGAAGGAGCCGCTAAGAAGTTATTAAGGGAGGAATAATCCCTCAATATAAATATCTCTCACTTATTTAAA | 0.993 | – | –
5 | ACAGACGAAGGAGCCGCAAAGAAGTTACTAAGGGATGAATAATCTCTCAATATAAATATCTCTCACTTATTTAAA | 0.22 | – | 0.149
6 | ACAGACGAAGGAGCCGCAAAGAAGTTATCAAGGTATGAATAATCCCTCAATATAAATATCTCTCACTTATTTAAA | 0.169 | – | –
7 | ACAGACGAAGGAGCCGCTAAGAAGTTATTAAGGGATGAATAATACCTCAATATAAATATCTCTCACTTATTTAAA | 0.15 | – | –
8 | CGACATGTCCCGCTTCTTTCATTAATCCGTTAGTAACTGTTTTGCTATATACATATACCTTTTAAGAGGAGGAAT | – | 0.305 | –
9 | ACAGACGAAGGAGCCGCAAAGAAGCTATTAAGGGATGAATAATCCCTTAATATAAATATCTCTCACTTATTTAAA | 0.827 | – | –
10 | ACAGACGAAGGAGCCGCAGAGAAGTTATTAAGGGATGAATAATCCGTCAATATAAATATCTCTCACTTATTTAAA | 0.294 | – | –
11 | ACAGACGAAGGAGCCGCAAAGAAGTTATTAATGGATGAATAATTCATCAATATAAATATCTCTCACTTATTTAAA | 0.316 | – | –
12 | ACAGACGAAGGAGCCGCAAAGATGTTATTAAGGGATGAATACTCCCTCAATATAAATATCTCTCACTTATTTAAA | – | – | 0.648
13 | ACAGACGAAGGAGCCGCAAATAAATTATTAAGGGATGAATAATACCTCAATATAAATATCTCTCACTTATTTAAA | 0.0858 | – | –
14 | ACAGACGAAGGAGCCGCAAAGAATTTATTAATGGATGAATAATCCCTCAATATAAATATCTCTCACTTATTTAAA | 0.111 | – | 0.105
15 | ACAGACGAAGGAGCCGCAAAAAAGTTATTAAGGGATGAATAATCCCTCAATACAAATATCTCTCACTTATTTAAA | 0.0755 | – | –
16 | CGACATGTCCCGCTTCTTTCATTAATCAGTTAGCAACTGTTTTGCTATATACATTTAACTTTTAAGAGGAGGAAT | – | 0.983 | –
17 | CGACATGTCCCGCTTCTTTCATTAATCCGTTAGCAACTATTTTGCAATATACATTTACCTTTTAAGAGGAGGAAT | – | 0.531 | –
18 | CGACATGTCCCGCTTCTTTCATTAATCCTTTAGCAAGTGTTTTGCTATATACATTTACCTTTTAAGAGGAGGAAT | – | 0.82 | –
19 | ACAGACGAAGGAGCCGCAAAGAAGTTATCAAGGGATGAATAATCACTCAATATAAATATCTCTCACTTATTTAAA | 0.139 | – | 0.123
20 | ACAGACGAAGGAGCCGCAAAGAAGTTATTAAGGGATCAATAATCCCTCAATATAATTATCTCTCACTTATTTAAA | – | – | 0.468
21 | CGACATGTCCCGCTTCTTTCATTATTCCGTTAACAACAGTTTTGCTATATACATTTACCTTTTAAGAGGAGGAAT | – | 0.271 | –
22 | ACAGACGAAGGAGCCGCAAAGAAGTTATTAAGGGATGAATACTCCCTTAATATAAATATCTCTCACTTATTTAAA | 0.47 | – | –
23 | ACAGACGAAGGAGCCGCAAAGAAGTTATTAAGGGATGAATAATCCTTCAATATAAGTATCTCTCACTTATTTAAA | 0.213 | – | –
24 | ACAGACGAAGGAGCCGCAAAGAAGTTATTAATGGATGAATAATCTCTCAATATAAATATCTCTCACTTATTTAAA | 0.14 | – | 0.108
25 | ACAGACGAAGGAGCCGCAAAGAAGTTACTAATGGATGAATAATCCCTCAATATAAATATCTCTCACTTATTTAAA | 0.172 | – | 0.112
26 | ACAGACGAAGGAGCCGCATATAAGTTATTAATGGATGAATAATCCCTCAATATAAATATCTCTCACTTATTTAAA | 0.131 | – | –
